# Earlier results, collected in article PMC6731456.
# Target: Apelin receptor (Homo sapiens) (UniProt P35414)
# Sequence of UniProt P35414 (P35414 whole entry): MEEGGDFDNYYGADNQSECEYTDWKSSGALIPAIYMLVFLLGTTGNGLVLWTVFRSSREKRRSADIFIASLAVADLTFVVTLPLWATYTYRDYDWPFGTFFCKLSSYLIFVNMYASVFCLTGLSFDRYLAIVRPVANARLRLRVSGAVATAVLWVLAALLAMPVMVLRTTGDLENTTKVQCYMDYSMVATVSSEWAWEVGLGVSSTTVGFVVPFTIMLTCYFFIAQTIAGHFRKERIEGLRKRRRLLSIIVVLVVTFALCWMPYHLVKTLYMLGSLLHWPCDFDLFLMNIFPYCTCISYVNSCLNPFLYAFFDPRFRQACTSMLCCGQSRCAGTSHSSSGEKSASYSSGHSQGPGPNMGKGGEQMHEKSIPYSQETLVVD
substance,measurement,value
Protamine (from UniProt P69014),Ki,390 nM
